B1: full-kB (14-mer) (dsDNA)
DNA 1: TCGGGAATTCCCGA
DNA 2: TCGGGAATTCCCGA
B2: half-kB (18-mer) (dsDNA)
DNA 1: TTCGGGAAATAGAAACTC
DNA 2: GAGTTTCTATTTCCCGAA
B3: half-kBL (21-mer) (dsDNA)
DNA 1: CTTCGGGAAATAGAAACTCTC
DNA 2: GAGAGTTTCTATTTCCCGAAG

Tests used:
[1] = biological target: p50-RHR homodimer (mouse, UniProt P25799 39-363); experiment: NMR
[2] = biological target: p50-NTD (mouse, UniProt P25799 39-245); experiment: NMR
Chain of p50-NTD (P25799 39-245): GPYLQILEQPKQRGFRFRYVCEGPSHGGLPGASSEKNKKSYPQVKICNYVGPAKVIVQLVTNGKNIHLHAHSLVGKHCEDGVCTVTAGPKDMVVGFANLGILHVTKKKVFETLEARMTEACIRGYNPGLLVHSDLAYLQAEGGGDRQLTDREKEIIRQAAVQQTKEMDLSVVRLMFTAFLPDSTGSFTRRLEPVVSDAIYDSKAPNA

Chain of p50-RHR homodimer (P25799 39-363): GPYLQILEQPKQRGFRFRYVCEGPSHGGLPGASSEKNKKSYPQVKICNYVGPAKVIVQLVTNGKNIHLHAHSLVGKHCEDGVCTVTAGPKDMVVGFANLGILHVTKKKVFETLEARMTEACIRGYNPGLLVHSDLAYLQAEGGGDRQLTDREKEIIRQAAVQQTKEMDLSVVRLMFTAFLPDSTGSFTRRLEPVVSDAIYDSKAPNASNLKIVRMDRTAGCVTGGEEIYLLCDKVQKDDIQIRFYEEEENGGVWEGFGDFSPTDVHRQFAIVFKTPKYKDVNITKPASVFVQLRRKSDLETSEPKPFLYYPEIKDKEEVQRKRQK

| Binder | binding result [1] | binding result [2] |
| --- | --- | --- |
| B1 | binds | binds |
| B2 | – | binds |
| B3 | – | binds |

Reference: PMC8154232
